What was measured:
[1] = target: T1, Recombinant human CD4 (R&D Systems, Cat. 10327-CD) (human, UniProt P01730 26-390, limits assumed); experiment: BLI (Octet Red384), non-clonal supernatant on AMC sensor, 100 nM human CD4, 1:1 local fit;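 also: hybridoma antibodies captured from supernatant, single CD4 concentration as analyte, association and dissociation phases fitted together, giving single-point kinetic estimates per supernatant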
T1 construct: Bought soluble recombinant protein used as analyte at 100 nM; also called huCD4

[2] = target: T1, Recombinant human CD4 (R&D Systems, …); experiment: BLI (Octet Red384), non-clonal supernatant on AMC sensor, 100 nM human CD4
[3] = target: T2, human CD8 on human pan T cells (CD4-negative population) (human, UniProt P01732 22-235; P10966 22-210); experiment: flow cytometry, 20 nM antibody on human pan T cells, A647 anti-human IgG Fc; geomean ratio in CD4-negative population
T2 construct: whole, on cells; Endogenous CD8 on primary human pan T cells, read in the CD4-negative gate; also called CD8α/β
T2 sequence (P01732 22-235, chain 1 of 2): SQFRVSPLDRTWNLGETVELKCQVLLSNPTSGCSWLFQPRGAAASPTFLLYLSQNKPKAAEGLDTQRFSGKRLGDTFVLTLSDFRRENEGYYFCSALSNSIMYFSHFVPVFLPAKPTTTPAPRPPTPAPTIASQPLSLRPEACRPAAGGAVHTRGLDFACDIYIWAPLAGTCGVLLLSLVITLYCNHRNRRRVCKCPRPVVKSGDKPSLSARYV
T2 sequence (P10966 22-210, chain 2 of 2): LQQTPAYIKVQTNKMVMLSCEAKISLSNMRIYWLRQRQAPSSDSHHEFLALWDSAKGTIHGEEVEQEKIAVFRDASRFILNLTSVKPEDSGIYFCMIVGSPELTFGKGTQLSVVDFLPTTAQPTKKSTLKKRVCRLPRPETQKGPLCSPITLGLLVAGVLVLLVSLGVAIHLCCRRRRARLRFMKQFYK

Binder	Kd [1] [nM]	koff [1] [s⁻¹]	kon [1] [M⁻¹ s⁻¹]	Response [2]	Cell Binding to Human PanT Signal/Background (of CD4 negative population) [3]
75110_08M20A (antibody, V domains shown, Non-clonal AlivaMab Mouse Kappa hybridoma supernatant, captured by anti-mouse IgG Fc (human V regions, mouse Fc)) VH: QVQLQESDPGLVKPSETLSLTCTVSGGSISSYYWSWIRQPAGKGLEWIGRIYASGSTNYNPSLKSRVTMSVDTSKNQFSLKLSSVTAADTAVYYCARDREGYYYYGMDVWGQGTTVTVSS VL: DIQMTQSPSSLSASVGDRVTITCQASQDISKYLNWYQQKPGKAPNLLIYAASNLETGVPSRFSGSGSGTDFTFTISSLQPEDIAAYYCQQYDSLPITFGQGTRLEIK	3.6	0.00053	150000	0.19	–
75110_06G04A (antibody, V domains shown, Non-clonal AlivaMab Mouse Kappa hybridoma supernatant, captured by anti-mouse IgG Fc (human V regions, mouse Fc)) VH: QVQLLESGPGLVKPSETLSLTCTVSGGSISSYYWSWIRQPAGKGLEWIGRIYISGSTNYNPSLKSRVTMSIDTSENQFSLNLSSVTAADTAVYYCARELERPYYYGMDVWGQGTTVTVSS VL: DIQMTQSPSSLSASVGDRVTITCQASQDISNYLNWYQQKPGKAPKLLIYNASTLETGVPSRFSGSGSGTDFTFTISSLQPEDIATYYCQQYDNLPLTFGGGTKVEFK	14	0.001	75000	0.12	–
75110_07J02A (antibody, V domains shown, Non-clonal AlivaMab Mouse Kappa hybridoma supernatant, captured by anti-mouse IgG Fc (human V regions, mouse Fc)) VH: EVQLVESGGGLVQPGGSLRLSCAASGFTFSSYWMSWVRQAPGKGLEWVANIKEDGSEKYYVDSVKGRFTISRDNAKNSLYLQMNSLRAEDTAVYYCARDGSYSGYGMDVWGQGTTVTVSS VL: AIQMTQSPSSLSASVGDRVTITCRASQGIRNDLGWYQQKPGKAPKLLIYAASSLQSGVPSRFSGRGSGTDFALTISSLQPEDFATYYCLLDYNYPYTFGQGTRLEIK	0.56	3.83e-05	68400	0.13	–
75110_08F20A (antibody, V domains shown, Non-clonal AlivaMab Mouse Kappa hybridoma supernatant, captured by anti-mouse IgG Fc (human V regions, mouse Fc)) VH: QVQLQESGPGLVKPSETLSLTCSVSGGSISTYYWSWIRQPAGKGLEWIGRICTTENTNYNPSLKSRVTMSIDSSKNQFSLKLSSVTAADTAVYYCARDLERLNYYGMDVWGQGATVTVSS VL: DIQMTQSPSSLSASVGDRVTITCQASQDISKYLNWYQQKPGIAPKLLIYDASNLETGVPSRFSGSGSGTDFTFTISSLQPEDFATYYCQQYDSLPITFGQGTRLEIK	1.9	0.00026	140000	0.32	–
75110_08G08A (antibody, V domains shown, Non-clonal AlivaMab Mouse Kappa hybridoma supernatant, captured by anti-mouse IgG Fc (human V regions, mouse Fc)) VH: QVQLQESGPGLVKPSETLSLTCSVSGGSISTYYWSWIRQPAGKGLEWIGRICTTENTNYNPSLKSRVTMSIDSSKNQFSLKLSSVTAADTAVYYCARDLERLNYYGMDVWGQGATVTVSS VL: DIQMTQSPSSLSASVGDRVTITCQASQDISNYLNWYQQKPGIAPKLLIYDASNLETGVPSRFSGSGSGTDFTFTISSLQPEDIATYYCQQYDSLPITFGQGTRLEIK	3.4	0.00096	280000	0.13	–
75110_14G10A (antibody, V domains shown, Non-clonal AlivaMab Mouse Kappa hybridoma supernatant, captured by anti-mouse IgG Fc (human V regions, mouse Fc)) VH: EVQLVESGGGLVKPGGSLRLSCAASGFTFSSYSMNWVRQAPGKGLEWVSFISSSSSYIYYADSVKGRFTISRDNAKNSLYLQMNSLRAEDTAVYYCARERGDDYGDYEGAFDIWGQGTMVTVSS VL: not shown	< 0.001	< 1e-07	78800	0.0363	–
CD8B364 (antibody, human IgG1, kappa, V domains shown, Full-length human IgG1, kappa; V regions recovered from mouse hybridoma) VH: QVQLQQPGAELVKPGASVKLSCKASGYTFTSYWMHWVNRRPGQGLEWIGEINPSNGDSYYNEKFKRKATLTVDISSSTAYMQLSSLTSEDSAVYYCTRSMYYDGRAGAYWGQGTTVTVSS VL: DIVLTQSPASLSVATGEKVTIRCITSTDIDDDMNWYQQKPGEPPKLLISEGNTLRPGVPSRFSSSGYGTDFVFTIENTLSEDVADYYCLQSDNMPLTFGAGTKLELKR	–	–	–	–	1560
CD8B200 (antibody, human IgG1, kappa, V domains shown, Full-length human IgG1, kappa; V regions recovered from mouse hybridoma) VH: EVQLQQSGAELVKPGASVKLSCKASGYTFTNYWIHWVKQRPGQGLEWIGNIDPSDSETHYNQKFKDKATLTVDKSSSTAYMQLISLTSEDSAVYYCASGLTGTGYYWGQGTTLTVSS VL: DIQMTQTTSSLSASLGDRVTITCRASQDISPYLNWYQQKPEGTIKLLIYYTSKLHSGVPSRFSGSGSGTDYSLTISNLEQEDIATYFCQQDNTLPYTFGSGTKLELKR	–	–	–	–	1990
CD8B270 (antibody, human IgG1, kappa, V domains shown, Full-length human IgG1, kappa; V regions recovered from mouse hybridoma) VH: QVQLQQPGAELVKPGASVMLSCKASGYTFTNYWMHWVKQRPGQGLEWIGNIDPSDSETHYNQKFKDKATLTVDKSSSTAYMQLSSLTSEDSAVYYCASGLTGTGYYWGQGTTLTVSS VL: DIQMTQTTSSLSASLGDRVTITCRASQDIRPYLNWYQQKPEGTIKLLIYFTSKLHSGVPSRFSGSGSGTDYSLTISNLEQEDIATYFCQQDNTLPYTFGSGTKLELKR	–	–	–	–	2500
CD8B213 (antibody, human IgG1, kappa, V domains shown, Full-length human IgG1, kappa; V regions recovered from mouse hybridoma) VH: EVQLQQSGPELVKPGDSMKMSCKASGYIFTDYYMDWVKQSHGKSLEWIGYIYPNNGITSYNQKFKGRATLTIDKSSSTAYMELHSLTSEDSAVYYCARSIYYDHGGGFPYWGQGTSVTVSS VL: DIVLTQSQKFMSTSVGDRVSVTCKASQNVDKYVAWYQQKPGQSPKALIYSASYRYSGVPDRFTGSGSGTDFTLTISNVQSEDLAEYFCQQYNTYPSFGSGTKLEMKR	–	–	–	–	827
CD8B240 (antibody, human IgG1, kappa, Full-length human IgG1, kappa; V regions recovered from mouse hybridoma) heavy: not shown light: DIVMTQSPATLSVTPGDRVSLSCRASQSISDFLHWYQQKSHESPRLLIKYASQSISGIPSRFSGSGSGSDFTLTINSVEPEDVGVYYCQNGHSFPYTFGSGTKLEIKRTVAAPSVFIFPPSDEQLKSGTASVVCLLNNFYPREAKVQWKVDNALQSGNSQESVTEQDSKDSTYSLSSTLTLSKADYEKHKVYACEVTHQGLSSPVTKSFNRGEC	–	–	–	–	1310
CD8B191 (antibody, human IgG1, kappa, Full-length human IgG1, kappa; V regions recovered from mouse hybridoma) heavy: not shown light: DIVLTQSPATLSVTPGDRVSLSCRASQSISDFLHWYQQKSHESPRLLIKYASQSISGIPSRFSGSGSGSDFTLTINSVEPEDVGVYYCQNGHSFPYTFGSGTKLEIKRTVAAPSVFIFPPSDEQLKSGTASVVCLLNNFYPREAKVQWKVDNALQSGNSQESVTEQDSKDSTYSLSSTLTLSKADYEKHKVYACEVTHQGLSSPVTKSFNRGEC	–	–	–	–	2440
CD8B361 (antibody, human IgG1, kappa, V domains shown, Full-length human IgG1, kappa; V regions recovered from mouse hybridoma; also called CD8B36I) VH: EVQLQQSGPELVKPGNSVKMSCKASGYTFTDYYMDWVKQSHGTSLEWIGYIYPNNGDTRYNQKFKDKATLTVDKSSSTAYMELHSLTSEDSAVFYCARSIYYDHGGGFPYWGQGTLVTVSA VL: DIVMTQSQKFMSTSVGDRVSVTCKASQNVGTYVAWYQQKPGQSPKALIYSASYRYSGVPDRFTGSGSGTDFTLTINNVQSEDLAEYLCQQYNSYPTFGGGTRLEIKR	–	–	–	–	1050
CD8B246 (antibody, human IgG1, kappa, V domains shown, Full-length human IgG1, kappa; V regions recovered from mouse hybridoma) VH: QVQLKESGPGILKPSQTLSLTCSFSGFSLSTSGMNVGWIRQPSGKGLEWLAHIWWDDDKYYNPSLKSQLTISKDTSRNQVFLKITSVDTADTATYYCARRGNYGNYEFAYWGQGTTLTVSS VL: DIQMTQTTSSLSASLGDRVTISCRASQDIRNYLNWYQQKPDGTVKLLIYHTSRLHSGVPSRFSGSGSGTDYSLTISNLEQEDIATYFCQQGNTLPWTFGAGTKLELKR	–	–	–	–	1110
CD8B304 (antibody, human IgG1, kappa, V domains shown, Full-length human IgG1, kappa; V regions recovered from mouse hybridoma) VH: QVTLKESGPGILKPSQTLSLTCSFSGFSLSTSGMNVGWIRQPSGKGLEWLAHIWWDDDKYYNPSLKSQLTISKDTSRNQVFLKITSVDTADTATYYCARRGNYGNYEFAYWGQGTTVTVSS VL: DIQMTQTTSSLSASLGDRVTISCRASQDIRNYLNWYQQKPDGTVKLLIYHTSRLHSGVPSRFSGSGSGTDYSLTISNLDQEDIATYFCQQGNTLPWTFGAGTKLELKR	–	–	–	–	923
CD8B268 (antibody, human IgG1, kappa, V domains shown, Full-length human IgG1, kappa; V regions recovered from mouse hybridoma) VH: QVQLQQSGAELVKPGASVKLSCKASGYTFTVYTIHWVKQRSGQGLEWIGWFYPGSGNIKYNEKFKDKATLTADKSSHTVYMELSRLTSEDSAVYFCARHEDNHYYDGNSWFAYWGQGTLVTVSA VL: DIQMTQSPASLSASVGQTVTITCRASGNIHNYLAWFQQKQGKSPQLLVYNAKTLADGVPSRFSGSGSGTQYSLKINSLQTEDFGNYYCQHFWNTPYTFGGGTKLEIKR	–	–	–	–	1170
CD8B273 (antibody, human IgG1, kappa, V domains shown, Full-length human IgG1, kappa; V regions recovered from mouse hybridoma) VH: QVQLQQSGAELVKPGASVKLSCKASGYTFTEYTIHWVKQRSGQGLEWIGWFYPGTGSIKYNEKFKDKATLTADKSSHTVYMELSKLTSEDSAVYFCARHEDNHYYDGNSWFAYWGQGTLVTVSA VL: DIQMTQSPASLSASVGETVTITCRASGNIHNYLAWFQQKQGKSPQLLVYNAKTLADGVPSRFSGSGSGTQYSLKINSLQAEDFGSYYCQHFWSTPYTFGSGTKLEIKR	–	–	–	–	938
CD8B271 (antibody, human IgG1, kappa, V domains shown, Full-length human IgG1, kappa; V regions recovered from mouse hybridoma) VH: DVQLQESGPGLVAPSQSLSITCTVSGFSLSIYSIHWVRQPPGKGLEWLGMIWGGGDTDYNSALKSRLSISKDNSESQVFLKMNSLQTDDTAMYYCARNPHYYGGTYEYFDVWGTGTTVTVSS VL: DIQMTQTTSSLSASLGDRVTISCSASQGISNYLNWYQQKPDGTVKLLIYDTSILYSGVPSRFSGSGSGTDYSLTISNLEPEDVATYYCQQYSNLPYTFGSGTKLEIKR	–	–	–	–	911
CD8B303 (antibody, human IgG1, kappa, V domains shown, Full-length human IgG1, kappa; V regions recovered from mouse hybridoma) VH: QVQLKESGPGLVAPSQSLSITCTVSGFSLSIYSIHWVRQPPGKGLEWLGMIWGGGSTDYNSTLNSRLSIIKDNSKSQVFLKMNSLQTDDTAMYYCARNPHHYGGSTGAMDYWGQGTTVTVSS VL: DVQMIQSPSSLSASLGGTVTITCKASQDIKKYMAWYQHKPGKGPRLLIHYTSSLQPGIPSRFSGSGSGRDYYFSISNLEPEDIATYFCLQYDNLFTFGSGTKLELKR	–	–	–	–	1180

Reference: patent US20220112288A1 (published 2022)
